Data as given in the DeepSol protein solubility set.

Assay: soluble on expression in E. coli; label from the status in PepcDB or PDB records

Sequence | soluble on expression in E. coli
SNAMQAIRSILVVIEPDQLEGLALKRAQLIAGVTQSHLHLLVCEKRRDHSAALNDLAQELREEGYSVSTNQAWKDSLHQTIIAEQQAEGCGLIIKQHFPDNPLKKAILTPDDWKLLRFAPCPVLMTKTARPWTGGKILAAVDVGNNDGEHRSLHAGIISHAYDIAGLAKATLHVISAHPSPMLSSADPTFQLSETIEARYREACRTFQAEYGFSDEQLHIEEGPADVLIPRTAQKLDAVVTVIGTVARTGLSGALIGNTAEVVLDTLESDVLVLKPDDIIAHLEELASKE | soluble
SNAMQIVKKEKFILKEYTFENGRTIPVQMGYETYGTLNRERSNVILICHYFSATSHAAGKYTAHDEESGWWDGLIGPGKAIDTNQYFVICTDNLCNVQVKNPHVITTGPKSINPKTGDEYAMDFPVFTFLDVARMQCELIKDMGIARLHAVMGPSAGGMIAQQWAVHYPHMVERMIGVITNPQNPIITSVNVAQNAIEAIRLDPSWKGGKYGEEQPMKGLQLANRMMFMNAFDEHFYETTYPRNSIEVEPYEKVSSLTSFEKEINKLTYRSIELVDANSWMYTAKAVLLHDIAHGFSSLEEALSNVEANVLMIPCKQDLLQPSRYNYKMVDLLQKQGKYAEVYEIESINGHMAGVFDIHLFEKKVYEFLNRKVSSFV | soluble
SNAMSQKLYNMKFAAVYLALIAKVERKGGKAESVHQVTSWLTGYEVSDVLACLDRDVTYGDFFRQAPYYVPERIAITGKICGVRIEEIDDPLMQEIRRLDKLVDWLAKGKTSQQVLEKYEKHK | soluble
SNAMTHIQLDFSKTLEFFGEHELKQQQEIVKSIHKTIHEGTGAGSDFLGWVDLPVDYDKEEFSRIVEASKRIKENSDVLVVIGIGGSYLGARAAIEMLTSSFRNSNEYPEIVFVGNHLSSTYTKELVDYLADKDFSVNVISKSGTTTEPAVAFRLFKQLVEERYGKEEAQKRIFATTDKEKGALKQLATNEGYETFIVPDDVGGRYSVLTAVGLLPIATAGINIEAMMIGAAKAREELSSDKLEENIAYQYATIRNILYAKGYTTEMLINYEPSMQYFNEWWKQLFGESEGKDFKGIYPSSANYTTDLHSLGQYVQEGRRFLFETVVKVNHPKYDITIEKDSDDLDGLNYLAGKTIDEVNTKAFEGTLLAHTDGGVPNMVVNIPQLDEETFGYVVYFFELACAMSGYQLGVNPFNQPGVEAYKQNMFALLGKPGFEDLKKELEERL | soluble
SNAPLKEQKVINTANIKTNSKLDLAEYENGLINIATQQFDTESHVLQLNQYIPEKLIDELVAKVEAPVLTNIIEQDYFGKQNSNELSLSGVMIGLAMSSSVSNEEAMSKGTEVAKQLIEAINKNDKYNKSPITFAIFKQESTSSLKNGTYIASATVQKNDTNLGNWSTIDEKSYSYPSDEFTQAHGEDNTKINNFAKEIKGFSNGDFIPVNAKVSYKKDQMDTLNMNIVIKYNGKTELMALTQLAAQGMLDKLPKDAKVQLQIKSESKIEAVIIKEKNSDKPFVSFL | soluble
SNDAGAKTENTVDASPTPTNTPTDGDGDSAEEPVENTPAEPEPRPTPVEPEAMKTSDKAGAIAAAQYFVEVIEHSMHTSTTDLLEKYSYEKCSMCNEYKRTIAKRKDNGILVTNSQYEIKDLGPASLWGKKQLIWEVMLNLSVKEEYENFDESYTTEHSLLFYVTYLPDGWVLTEVTPASKK | not soluble
SNGAGLAADIQLQRDAKTPLALSAKLAEVFFRTGNPLAATLADWPGLLELGNGRATAAAGWKLDAAGGSSLDLDLTLKGLDGIYDRSELKGLGGSLALRLRGGQLSLDSPGLSLAEANPGLPLGPVSFRGRYEAPLSAPGSGRLSWQTLQSGLFGGQASVPAGSIRLGQAEQKFALRIQGIQLGEIFRVYPAEGLAGEGTLDGELPLMLNRWKPSVSGGQVKAREPGYLRFRSAKIEALGRSNPGMKLVADALDDFHYDVLQSSVDYHENGKLLLGLRLQGSNPDLEKGRPVNLNVNLEEDIPALLTSLQLSDRVSETIRQ | not soluble
SNSGEPAPVLSSPTPTDLSTFLSFPSPEKLLRLGPKVSVLIVQQTDTSDPEKVVSAFLKVASVFRDDASVKTAVLDAIDALMKKAFSCSSFNSNTFLTRLLIHMGLLKSEDKIKAIPSLHGPLMVLNHVVRQDYFPKALAPLLLAFVTKPNGALETCSFARHNLLQTLYNI | soluble
SNTGPYYFVKNLPLHELITPEFISTFIKKGKLILSLDKDTYEETGLQGHPSQFSGRKIMKFIVSIDLMELSLNLDSKKYERISWSFKEKKPLKFDFLLAWHKTGSEESTMMSYFSKYQIQEHQPKVALSTLRDLQCPVLQSSELEGTPEVSCRALELFDWLGAVFSNVDLNNEPNNFISTYCCPEPSTVVAKAYLCTITGFILPEKICLLLEHLCHYFDEPKLAPWVTLSVQGFADSPVSWEKK | soluble
SNVNIDSEQLFTEEKPKDYAQPEVLCHTFELLSNLHKLLPNRTVEVLHSYRSEEDKRKCEKPEFSGIEKILARHQLPKEINLSPKPSHVPSWKRKIINNISGNWKKCRLWQKSIYEPPMGTIIVRWTKKNLQPSEDLKSVIQRLSALGPIISVTPCGRESAVVVFRDAASACKAVSAFQTMSADSMFHCSWQHRFMSKNKTWSRRYPSKIHAEKKEKHP | soluble
SPAAVASALEGCREPVPGIRCRDAFSAASGIIDKMACVPELAVSEISAPRIVSSLAGDGHALFVANSMPARDMDLYAAPVAQKPLQVALNRGVSGIDGIISTAAGFSAGLGKPTTLLIGDISFLHDLNALCLLNHPWNPLIVIVLNNHGGSIFSFLPIASQTDRLDECFATPQNFSIESAARTFGIDYACPETNGDFTQLYAEALTTKKSLIIEIRSDREKNLLLHRSLKARLDPVFEKADC | not soluble
SPSETLWEIAKAEVEKRRSHGSEGDGAEIGEKSVFFIGSKNGGKTTIILRCLDRDESAKPTLALEYTYGRKTKGHNTPKDIAHFWELGGGTSLLDLISIPITVDTLRTFSIVLVLDLSKPNDLWSTMENLLQATKSHVDKVIMKLGKTSSKASAEMRQRMWSVVQKDHPDRELIDPFPIPLVIIGSKYDIFQDFDPEKRKVICKTLRFVAHYYGASLMFTSKSEALLLKIRGVINQLAFGIDKSKSICVDQNKPLFITAGLDSLCQIGSPPVPDSDIGKLQAHSPMELWKKVYDKLFPPKSTGTLKAVQDPARDPQYAESEVDEMRVQKDQELEHYKRSSSKTWKQIELDS | soluble
SPSYTVLGQLPDTDVYIDIDAYEEVKEIPGIKIFQINAPIYYANSDLYSSALKRKTGVNGSENIHTVILDFTQVNFMDSVGVKTLAGIVKEYGDVGIYVYLAGCSAQVVNDLTSNRFFENPALKELLFHSIHDAVLGSQVREA | soluble
SPTPVELHKVTLYKDSGMEDFGFSVADGLLEKGVYVKNIRPAGPGDLGGLKPYDRLLQVNHVRTRDFDCCLVVPLIAESGNKLDLVISRNP | soluble
SPVVVVTGASRGIGKAIALSLGKAGCKVLVNYARSAKAAEEVSKQIEAYGGQAITFGGDVSKEADVEAMMKTAIDAWGTIDVVVNNAGITRDTLLIRMKKSQWDEVIDLNLTGVFLCTQAATKIMMKKRKGRIINIASVVGLIGNIGQANYAAAKAGVIGFSKTAAREGASRNINVNVVCPGFIASDMTAKLGEDMEKKILGTIPLGRTGQPENVAGLVEFLALSPAASYITGQAFTIDGGIAI | soluble
SQDPYFKIANWTNEHDDFKKAEMRMDEKHRKKVDKVMKEWGDLETRYNEQKAKDPKGAEKFKSQMNARFQKTVSSLEEEHKRMRKEIEAVHEERVQAMLNEKKRDATHDYRQALATHVNKPNKHSVLQSLKAYIRAEEKDRMHTLNRYRHLLKADSKEAAAYKPTVIHRLRYIDLRINGTLAMLRDFPDLEKYVRPIAVTYWKDYRDEVSPDISVEDSELTPIIHDDEFSKNAKLDVKA | soluble
SQVDVKDCANHEIKKVLVPGCHGSEPCIIHRGKPFQLEAVFEANQNTKTAKIEIKASIDGLEVDVPGIDPNACHYMKCPLVKGQQYDIKYTWNVPKIAPKSENVVVTVKVMGDDGVLACAIATHAKIRD | soluble
SRKMSLMRKEKLRGKAIKYVPASLLTKEFYSEAFTLNVDVIENIPKEFITAKMCEEAIQKNRHNIAYIPFEYRTEKIITEAIKNNGLALSEIDDTQKTEQLCLLAIRNHGGALQYVPYQLRTPEICLEAVKNFNGALNYVPEHIRTADFHTEYLIEDDWIDELLAGYDERLLKAVRKDARNLAAIPEEQRTYELCVEALLNNNDSDSVLKYVPDEFKTPEFYRNCVRINNKHFKDIPDSMKSYELCFEAVTNSPYALEYVPQRLLTKEIILAALSQKSMAVLDYVPPEFMTEEVYTTAFKNDIFGDIAYIFPEEYRTKENYLAMLGNPYSVCSTIIKTMPDYLKTDDFLVAAAKLRDEMLEYVPEYLLTQELCYELVKANGYALRITPPQFITEALCRTAVESDPRALCYVPEEFRTHEICDLALQKDMGLIKYAPADFAITADLCRRAVEADADAINQIPEQFRTEELWRIAVSEYGRLLEDLPASLMSEEFCRLAVANDGRALEFVPDKNKTKDVCFEAVRNSGHALKFVDVSKLTKEEYSKLCRLAFER | not soluble
SRLEGWLSLPVRNNTKKFGWVKKYVIVSSKKILFYDSEQDKEQSNPYMVLDIDKLFHVRPVTQTDVYRADAKEIPRIFQILYANEGISSAKNLLLLANSTEEQQKWVSRLVKKIPKK | soluble
SRLSRIDLAVDDFHGLFGREYAKKAYSDDAFRTARAGRAPNGGERLVSEPNGKIINESFEVGSRESRIYWRIYNKAAQLGLDMHWFRNEVELKDMPIDVLLNIEGYFAGLCAYSASIINSLPVKVVTKKRQVALDIHSRIKWARRQVGKTLFDISKHFGGDLERVFGALISKEIHDDSLNLPDSYM | not soluble
SRNFSVFERFSKAFKDHPSLTRILVVSTISGGGLIAYSEANASYGANGGAVVETGTKKKKVVLLGTGWAGTSFLKNLNNSQYEVQIISPRNYFAFTPLLPSVTCGTVEARSVVEPIRNIGRKNVDTSYLEAECFKIDPASKKVYCRSKQGLSSNGKKEFSVDYDYLVIATGAQSNTFNIPGVEENCHFLKEVEDAQRIRKTVIDSFEKASLPELSDEERKRILHFVVVGGGPTGVEFAAELHDFVTEDLVSLYPRAKGSVRITLLEAADHILTMFDKRITEFAEEKFSRDGIDVKLGSMVTKVNEKDISAKTKGGEVSSIPYGMIVWSTGIGTRPVIKDFMKQIGQGNRRALATDEWLRVEGTDNIYALGDCATINQRKVMEDVSAIFSKADKDKSGTLTLKEFQEAMDDICVRYPQVELYLKSKRMRGIADLLKEAETDDVSKNNIELKIEEFKSALSQVDSQVKFLPATAQVAAQQGAYLAKCFDRMEECEKSPEGPIRMRGEGRHRFRPFRYRHLGQFAPLGGEQTAAQLPGDWVSIGHSSQWLWYSVYASKQVSWRTRVLVVSDWMRRFIFGRDSSSI | soluble
SRQWSQTLCEMSESEDDDIPQLSSHTLAALQEFYAEQKQSVNPRGDDKYNVGVIEENWQLSQFWYSQDTALRLAREAIDAAGEGGRIACVSAPSVYQKLRELCREDSSVYIFEYDRRFAIYGDEFIFYDYNHPLELPERIAAHSFDLVVADPPYLSEECLRKTSETIQFLTRGKILLCTGAIMEEQAAQLLGVKMCKFIPEHSRNLANEFRCYTNYDSGLDCEA | soluble
SSEAKKGHVLFFPYPLQGHINPMIQLAKRLSKKGITSTLIIASKDHREPYTSDDYSITVHTIHDGFFPHEHPHAKFVDLDRFHNSTSRSLTDFISSAKLSDNPPKALIYDPFMPFALDIAKDLDLYVVAYFTQPWLASLVYYHINEGTYDVPVDRHENPTLASFPGFPLLSQDDLPSFACEKGSYPLLHEFVVRQFSNLLQADCILCNTFDQLEPKVVKWMNDQWPVKNIGPVVPSKFLDNRLPEDKDYELENSKTEPDESVLKWLGNRPAKSVVYVAFGTLVALSEKQMKEIAMAISQTGYHFLWSVRESERSKLPSGFIEEAEEKDSGLVAKWVPQLEVLAHESIGCFVSHCGWNSTLEALCLGVPMVGVPQWTDQPTNAKFIEDVWKIGVRVRTDGEGLSSKEEIARCIVEVMEGERGKEIRKNVEKLKVLAREAISEGGSSDKKIDEFVALLT | soluble
